Measured values published in PMC4411359.

Target: YFP-tagged CREB-binding protein (UniProt Q92793)
Test: MST

UniProt Q92793, sequence (Q92793 whole entry): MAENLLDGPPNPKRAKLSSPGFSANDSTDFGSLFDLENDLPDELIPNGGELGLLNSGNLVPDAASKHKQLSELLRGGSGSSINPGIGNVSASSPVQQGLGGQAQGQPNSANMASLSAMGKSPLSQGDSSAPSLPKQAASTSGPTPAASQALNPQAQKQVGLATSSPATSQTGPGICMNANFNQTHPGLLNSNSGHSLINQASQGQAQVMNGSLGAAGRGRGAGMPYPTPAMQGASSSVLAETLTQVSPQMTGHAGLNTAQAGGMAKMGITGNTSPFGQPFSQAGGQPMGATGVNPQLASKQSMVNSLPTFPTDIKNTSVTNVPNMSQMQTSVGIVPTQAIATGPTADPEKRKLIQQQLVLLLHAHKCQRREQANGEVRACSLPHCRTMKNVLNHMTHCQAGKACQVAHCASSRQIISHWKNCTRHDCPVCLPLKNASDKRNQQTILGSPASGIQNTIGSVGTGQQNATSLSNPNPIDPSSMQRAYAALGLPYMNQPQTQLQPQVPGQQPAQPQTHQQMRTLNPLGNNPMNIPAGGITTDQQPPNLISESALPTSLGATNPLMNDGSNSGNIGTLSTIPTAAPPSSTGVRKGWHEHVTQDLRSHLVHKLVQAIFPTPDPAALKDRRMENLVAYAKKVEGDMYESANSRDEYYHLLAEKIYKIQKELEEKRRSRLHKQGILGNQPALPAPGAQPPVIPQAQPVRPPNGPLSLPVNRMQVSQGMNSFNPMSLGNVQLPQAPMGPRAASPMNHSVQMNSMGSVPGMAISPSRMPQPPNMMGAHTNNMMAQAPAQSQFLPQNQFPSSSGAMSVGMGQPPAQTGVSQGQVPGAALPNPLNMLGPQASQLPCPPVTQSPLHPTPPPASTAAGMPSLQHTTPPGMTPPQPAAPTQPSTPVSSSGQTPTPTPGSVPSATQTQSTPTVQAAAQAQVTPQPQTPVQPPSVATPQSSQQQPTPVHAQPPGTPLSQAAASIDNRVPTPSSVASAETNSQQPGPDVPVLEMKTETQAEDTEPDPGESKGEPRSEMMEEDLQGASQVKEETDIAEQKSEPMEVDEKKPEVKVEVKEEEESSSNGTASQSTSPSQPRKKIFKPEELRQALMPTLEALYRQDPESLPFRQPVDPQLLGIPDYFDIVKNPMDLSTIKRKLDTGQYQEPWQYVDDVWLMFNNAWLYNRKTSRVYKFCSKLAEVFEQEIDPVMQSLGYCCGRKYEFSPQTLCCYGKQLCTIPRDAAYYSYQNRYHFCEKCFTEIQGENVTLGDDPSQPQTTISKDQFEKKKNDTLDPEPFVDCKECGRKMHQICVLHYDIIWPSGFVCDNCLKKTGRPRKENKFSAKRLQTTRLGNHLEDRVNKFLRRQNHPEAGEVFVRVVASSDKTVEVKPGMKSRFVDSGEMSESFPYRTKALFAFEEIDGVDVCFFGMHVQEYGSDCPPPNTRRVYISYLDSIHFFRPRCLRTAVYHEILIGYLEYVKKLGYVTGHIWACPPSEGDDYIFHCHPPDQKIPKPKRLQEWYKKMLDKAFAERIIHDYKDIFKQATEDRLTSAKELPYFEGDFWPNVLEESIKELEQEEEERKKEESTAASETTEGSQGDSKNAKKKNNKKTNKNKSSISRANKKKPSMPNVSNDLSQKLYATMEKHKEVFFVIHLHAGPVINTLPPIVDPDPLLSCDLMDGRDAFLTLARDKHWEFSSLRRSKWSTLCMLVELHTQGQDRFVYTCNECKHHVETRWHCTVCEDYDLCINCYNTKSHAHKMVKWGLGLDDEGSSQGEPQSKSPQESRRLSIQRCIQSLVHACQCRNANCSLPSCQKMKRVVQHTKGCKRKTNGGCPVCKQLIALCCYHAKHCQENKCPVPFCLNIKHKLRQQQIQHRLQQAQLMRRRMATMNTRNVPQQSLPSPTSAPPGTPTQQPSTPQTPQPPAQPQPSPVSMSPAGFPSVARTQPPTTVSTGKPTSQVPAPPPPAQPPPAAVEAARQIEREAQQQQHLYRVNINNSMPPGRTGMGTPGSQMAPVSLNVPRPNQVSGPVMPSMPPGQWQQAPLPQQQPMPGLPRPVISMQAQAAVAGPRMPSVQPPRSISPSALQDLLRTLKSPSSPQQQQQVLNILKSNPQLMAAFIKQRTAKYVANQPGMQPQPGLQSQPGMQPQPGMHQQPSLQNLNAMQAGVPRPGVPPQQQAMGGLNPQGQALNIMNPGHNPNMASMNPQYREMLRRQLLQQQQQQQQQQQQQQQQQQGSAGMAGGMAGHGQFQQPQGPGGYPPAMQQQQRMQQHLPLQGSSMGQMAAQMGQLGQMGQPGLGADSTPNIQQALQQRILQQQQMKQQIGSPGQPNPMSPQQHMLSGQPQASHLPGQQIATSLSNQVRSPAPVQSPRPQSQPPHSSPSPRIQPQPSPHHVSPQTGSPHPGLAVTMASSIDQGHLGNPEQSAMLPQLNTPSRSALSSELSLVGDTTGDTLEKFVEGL

- fold decrease of affinity against wild-type HA-TDG: > 3 fold
Substance: HA-tagged human thymine DNA glycosylase P65A mutant (from UniProt Q13569 1-410) (enzyme)
